In assay [1] the target is T1, Cdc42-GTPγS (activated Cdc42) (UniProt P60953 1-191).
Assay [2] concerns the target T1, Cdc42-GTPγS (activated Cdc42). Briefly: apparent equilibrium binding constant; fluorescence titration of a fixed concentration of labeled WASP fragment with cdc42-GTPγS.
The next assay concerns the target Rac (activated GTPase) (UniProt P63000 1-192). In words: fluorescence response of the I-SO WASP biosensor with activated GTPases.
Another assay deals with RhoA (activated GTPase) (UniProt P61586 1-193). Described as above.
Chain of RhoA (activated GTPase) (P61586 whole entry): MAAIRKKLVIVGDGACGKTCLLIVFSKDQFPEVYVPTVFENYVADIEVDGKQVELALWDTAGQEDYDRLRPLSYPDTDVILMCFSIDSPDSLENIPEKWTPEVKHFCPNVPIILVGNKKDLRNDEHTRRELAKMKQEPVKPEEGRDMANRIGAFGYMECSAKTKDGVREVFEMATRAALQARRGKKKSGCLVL

T1 sequence (P60953 whole entry, the tested form may be a part): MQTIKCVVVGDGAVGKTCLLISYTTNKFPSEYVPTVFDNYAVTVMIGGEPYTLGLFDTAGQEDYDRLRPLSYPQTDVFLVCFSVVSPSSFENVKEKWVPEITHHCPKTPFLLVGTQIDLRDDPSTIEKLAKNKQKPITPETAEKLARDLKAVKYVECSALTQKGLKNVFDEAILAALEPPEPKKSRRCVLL

B1: Wiskott Aldrich Syndrome Protein (WASP) fragment, residues 201-320, F271C, labeled with S-SO dye 2e (other)
chain: DIQNPDITSSRYRGLPAPGPSPADKKRSGKKKISKADIGAPSGFKHVSHVGWDPQNGFDVNNLDPDLRSLCSRAGISEAQLTDAETSKLIYDFIEDQGGLEAVRQEMRRQEPLPPPPPPS
notes: also called labeled WASP fragment; WASP conjugate; not shown: C-terminal 6His fusion from pET23a
As to B1, the “change in fluorescence intensity” value in assay [1] was found to be 3 fold. The Kd in assay [2] stood at 150 nM.

B2: WASP fragment F271C labeled with I-SO dye (other)
chain: B1 chain
notes: also called I-SO-WASP biosensor; I-SO labeled WASP fragment; not shown: C-terminal 6His fusion from pET23a
Turning to B2, the “increase in fluorescence intensity” value in assay [1] was found to be 2.8 fold. Moreover, the binding result with Rac (activated GTPase) and in the assay with RhoA (activated GTPase) was “no binding” each time.

The values above are taken from patent US20060029946A1 (Scripps Research, published 2006).
